Test results taken from US20110262525A1, “METHODS OF TREATMENT” (SCHERING CORPORATION, priority 2006, published 2011).

Legend:
[1] = test system: ALL-4 xenograft (ALL B-precursor); assay: PPTP in vivo leukemia xenograft ALL-4; conditions: ALL-4 (ALL B-precursor) xenograft; 0.5 mg per mouse ip twice weekly for four weeks
Experimental: (§1) The PPTP includes a molecularly characterized in vitro panel of cell lines (n=27) and in vivo panel of xenografts (n=61) representing most of the common types of childhood solid tumors and childhood ALL (acute lymphoblastic leukemia). LCF/HCA anti-IGF1R antibody was tested against the PPTP in vitro panel at concentrations ranging from 0.01 nM to 100 nM; and was tested against the PPTP in vivo panel at a dose of 0.5 mg per mouse administered twice weekly for four weeks via intraperitoneal injection. […]
(§2) In vivo acute lymphoblastic leukemia testing: For each xenograft line, 8 mice were inoculated with 3-5×10^6 mononuclear cells purified from the spleens of secondary recipient mice. Engraftment was monitored weekly by flow cytometry, and treatment was initiated when the proportion of human CD45+ cells in the peripheral blood reached 1%. The proportion of human CD45+ cells in the peripheral blood was monitored weekly throughout the course of treatment. […]
(§3) Median Group Response: Each individual mouse in each treatment group was assigned a response score (see Tables above) and a median score for the treatment group was calculated and then each treatment group was assigned an overall response according to the table below. […]

[2] = test system: OS-9 xenograft (Osteosarcoma); assay: PPTP in vivo xenograft OS-9; parameters: key to EFS activity notation (high, intermediate, indeterminate): high (!); intermediate (#); indeterminate (^); conditions: OS-9 (Osteosarcoma) xenograft, 0.5 mg per mouse ip twice weekly for four weeks
Experimental: (§4) The PPTP includes a molecularly characterized in vitro panel of cell lines (n=27) and in vivo panel of xenografts (n=61) representing most of the common types of childhood solid tumors and childhood ALL (acute lymphoblastic leukemia). LCF/HCA anti-IGF1R antibody was tested against the PPTP in vitro panel at concentrations ranging from 0.01 nM to 100 nM; and was tested against the PPTP in vivo panel at a dose of 0.5 mg per mouse administered twice weekly for four weeks via intraperitoneal injection. Three measures of antitumor activity were used: 1) response criteria modeled after the clinical setting; 2) treated-to-control (T/C) tumor volume at day 21; and 3) a time to event (4-fold increase in tumor volume) measure based on the median EFS of treated and control lines (intermediate activity required EFS (event-free survival) T/C>2, and high activity additionally required a net reduction in median tumor volume at the end of the experiment).
(§5) Stage 1 testing involved testing an agent across the entire PPTP panel of childhood cancer xenograft lines at its maximum tolerated dose (MTD) or at a dose selected based on PK/PD (pharmacokinetic/pharmacodynamic) studies using adult preclinical models.
(§6) In vivo solid tumor testing: For each xenograft line, 10 mice bearing subcutaneous (SC) tumors initiated treatment when the tumors were between 0.2-0.5 cm^3 in volume. Two perpendicular tumor diameters were measured at once weekly intervals with digital vernier calipers. Assuming tumors to be spherical, volumes were calculated from the formula (π/6)×d3, where d represented the mean diameter.
(§7) Drug: LCF/HCA was dissolved in 20mM sodium acetate pH 5 buffer containing 150 mM sodium chloride, and administered intraperitoneally twice weekly for 4 consecutive weeks at a dose of 0.5 mg per animal. The antibody was provided to each testing site in coded vials for blinded testing according the PPTP's standard operating procedures.
(§8) Median Group Response: Each individual mouse in each treatment group was assigned a response score (see Tables above) and a median score for the treatment group was calculated and then each treatment group was assigned an overall response according to the table below.
(§9) Statistical Methods: Event-free survival (EFS) distributions of each treatment group were compared to the EFS distribution of the respective control group using the exact log rank test. P-values were 2-sided & were not adjusted for multiple comparisons given the exploratory nature of this study. P-values<0.05 were considered to be significant.

KT-13 xenograft (Wilms) = assay: PPTP in vivo xenograft KT-13; conditions: KT-13 (Wilms) xenograft, 0.5 mg per mouse ip twice weekly for four weeks
Experimental: as §4, §5, §6
(§10) Drug: LCF/HCA was dissolved in 20mM sodium acetate pH 5 buffer containing 150 mM sodium chloride, and administered intraperitoneally twice weekly for 4 consecutive weeks at a dose of 0.5 mg per animal. […]
as §3

[3] = test system: ALL-19 xenograft (ALL B-precursor); assay: PPTP in vivo leukemia xenograft ALL-19; conditions: ALL-19 (ALL B-precursor) xenograft; 0.5 mg per mouse ip twice weekly for four weeks
Experimental: as §1, §2, §3

[4] = test system: BT-29 xenograft (Rhabdoid); assay: PPTP in vivo xenograft BT-29; conditions: BT-29 (Rhabdoid) xenograft, 0.5 mg per mouse ip twice weekly for four weeks
Experimental: as §4, §5, §6, §10, §3

[5] = test system: SCC15 human squamous cell carcinoma tumor cells; assay: SCC15 squamous cell carcinoma xenograft in SCID mice; assay type: in vivo, mouse; conditions: 0.1 mg/injection ip two times per week, seven times starting on day 10
Experimental: Immune-deficient SCID mice (strain SCID) were inoculated with SCC15 human squamous cell carcinoma tumor cells in the right flank, subcutaneously, along with Matrigel (1:1 cells:gel). In these experiments, 5×10^6 cells/mouse in a 1:1 mix with regular matrigel were inoculated. The LCF/HCA anti-IGF1R antibody was inoculated intraperitoneally (ip) (0.1 mg/injection). Mice were dosed with the antibody two times per week, by intraperitoneal injection, seven times starting on day 10 with the last dose on day 31. Tumor size was measured with calipers and the data was entered into the labcat program. Mice were grouped with average size of 100 mm^3. Tumor size and body weight were measured twice weekly.

KT-10 xenograft (Wilms) = assay: PPTP in vivo xenograft KT-10; conditions: KT-10 (Wilms) xenograft, 0.5 mg per mouse ip twice weekly for four weeks
Experimental: as §4, §5, §6, §10, §3

EW5 xenograft (Ewings) = assay: PPTP in vivo xenograft EW5; parameters: key to EFS activity notation (high, intermediate, indeterminate): high (!); intermediate (#); indeterminate (^)
Experimental: as §4, §5, §6, §7, §8, §9

[6] = test system: squamous cell carcinoma cell line SCC 25; assay: Cell-Titer Glo proliferation assay, SCC25; assay type: cell-based; conditions: 0.000256-100 nM antibody, 96 hours
Experimental: Cell proliferation was assayed using a Cell-Titer Glo assay (Promega Corp.; Madison, Wis.). A cell-titer glo assay generates a “glow” luminescent signal in the presence of ATP from viable cells, which can be detected with a plate reader luminometer or CCD imaging device.
In this assay, squamous cell carcinoma cells, SCC9, SCC25 and SCC15, were trypsinized, counted and resuspended at 25,000 cells/ml in 10% HI-FBS RPMI containing NEAA, L-Glu, MEM Vitamins and PS. […] (2500 cells) were added to each well BD Falcon 96 well black, clear bottom TC treated plate. Cells were allowed to attach and spread overnight at 37° C. Then, 10% RPMI medium was replaced with […] 2% RPMI, containing the LCF/HCA antibody at the appropriate concentration, the following day. The anti-IGF1R antibody concentrations used in each experiment were 100 nM, 20 nM, 5 nM, 0.8 nM, 0.16 nM, 0.032 nM, 0.0064 nM, 0.00128 nM, and 0.000256 nM. All treatments were prepared in 2% RPMI at 20× concentration and serial diluted. Every test point was prepared in triplicate on separate assay plates. As mentioned above, cell proliferation was measured using the CellTiter-Glo Luminescent Cell Viability Assay (Promega) at 96 hours post treatment. Luminescence was detected on a Wallac 420 Plate Reader with stacker.

[7] = 0.5 mg per mouse ip twice weekly for four weeks

B1: LCF/HCA: fully human anti-IGF1R antibody comprising the mature 19D12/15H12 light chain F (LCF) and mature heavy chain A (HCA) (antibody, V domains shown)
VH: EVQLVQSGGGLVHPGGSLRLSCAASGFTFSSFAMHWVRQAPGKGLEWISVIDTRGATYYADSVKGRFTISRDNAKNSLYLQMNSLRAEDMAVYYCARLGNFYYGMDVWGQGTTVTVSS
VL: EIVLTQVPDFQSVTPKEKVTITCRASQSIGSSLHWYQQKPDQSPKLLIKYASQSLSGVPSRFSGSGSGTDFTLTINSLEAEDAAAYYCHQSSRLPHTFGGGTKVEIKRT
[1]
  EFS T/C: 0.8
  Median Final RTV: >25
[2]
  EFS T/C: > 1.2
  EFS activity notation (high, intermediate, indeterminate): ^
  Median Final RTV: 0.4^
[2]; day 21
  Tumor Volume T/C: 0.31
KT-13 xenograft (Wilms)
  EFS T/C: 1.1
  Median Final RTV: >4
KT-13 xenograft (Wilms); day 21
  Tumor Volume T/C: 0.84
[3]
  EFS T/C: 1.5
  Median Final RTV: >25
[4]
  EFS T/C: 1.4
  Median Final RTV: >4
[4]; day 21
  Tumor Volume T/C: 0.77
[5]
  tumor growth: less than that observed in mice only receiving a control injection without the antibody
KT-10 xenograft (Wilms)
  EFS T/C: 1.3
  Median Final RTV: >4
KT-10 xenograft (Wilms); day 21
  Tumor Volume T/C: 0.43
EW5 xenograft (Ewings); [7]
  EFS T/C: > 2.3
  EFS activity notation (high, intermediate, indeterminate): !
  Median Final RTV: 0.4!
  Overall Group Response: CR* (7 < MS ≦ 9)
EW5 xenograft (Ewings); day 21, 0.5 mg per mouse ip twice weekly for four weeks
  Tumor Volume T/C: 0.12
[6]
  proliferation of squamous cell carcinoma cell line: inhibited
